Experimental data as given in paper PMC8141524, “The uncharacterized SANT and BTB domain-containing protein SANBR inhibits class switch recombination” (The Journal of Biological Chemistry, 2021).

Key:
[1] = biological target: the molecule itself; assay: SEC; purified His6-SANBR(BTB) on a Superdex-200 10/30 column, compared with molecular weight standards; SEC buffer 10 mM HEPES pH 8.0, 0.3 M NaCl, 10% glycerol, 1 mM TCEP
GST-tagged mouse HDAC1 = biological target: T1, GST-tagged mouse HDAC1 (mouse, UniProt O09106 1-482); assay: pull-down; 200 nM His6-tagged BTB domain with equimolar GST-tagged protein, 50 mM HEPES pH 8.0, 150 mM NaCl, 0.1% IGEPAL-CA630, 2 mM EDTA, 4 °C; glutathione sepharose 4B; immunoblot anti-His; settings: both partners purified
T1 construct: histone deacetylase 1 (HDAC1), mouse; also called GST-HDAC1; source: E. coli BL21DE3(RIPL), purified (glutathione sepharose 4B, SEC)
T1 sequence (O09106 whole entry, the tested form may be a part): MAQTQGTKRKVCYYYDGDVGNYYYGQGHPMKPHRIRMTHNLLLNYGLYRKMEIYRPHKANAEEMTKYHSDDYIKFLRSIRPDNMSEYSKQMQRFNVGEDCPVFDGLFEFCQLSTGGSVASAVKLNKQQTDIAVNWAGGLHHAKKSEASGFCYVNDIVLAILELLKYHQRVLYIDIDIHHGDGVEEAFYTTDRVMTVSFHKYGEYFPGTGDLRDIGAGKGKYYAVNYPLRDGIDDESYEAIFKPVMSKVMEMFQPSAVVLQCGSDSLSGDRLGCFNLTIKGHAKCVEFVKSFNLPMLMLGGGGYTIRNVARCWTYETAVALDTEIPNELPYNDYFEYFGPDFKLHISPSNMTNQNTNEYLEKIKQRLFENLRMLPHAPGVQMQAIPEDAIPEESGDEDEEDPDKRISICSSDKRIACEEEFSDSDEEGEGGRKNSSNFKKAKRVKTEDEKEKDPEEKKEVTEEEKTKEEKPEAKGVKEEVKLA

B1: His6-SANBR(BTB), the predicted BTB domain of SANBR (amino acids 144-261) (domain or fragment, mouse, UniProt Q68FF0-1 144-261, looked up)
chain: GPNMVIHVCDEAKSLKEDFICPRDLLISEMKYFAEYLSMDAQRWEEVDISVHCDVHIFNWLIKYVKRNTKESKDCEIPALEPGNVISILISSEFLKMDSLVEQCIQYCHKNMNAIVAA
notes: SANBR (KIAA1841), mouse, residues 144-261 containing the BTB domain (predicted BTB domain 147-255); full-length protein has 718 amino acids; cDNA cloned from stimulated mouse splenic B cells; predicted size of the tagged fragment 15 kD; also called His6-tagged SANBR(BTB); KIAA1841 BTB domain; source: E. coli BL21DE3(RIPL), purified (HisTrap FF, SEC); not shown: His6, N-terminal, kept
stoichiometry N [1]: 2 | binding result (GST-tagged mouse HDAC1): binds
